Laboratory results reported in US20250051437A1 (University of California, published 2025).
Where no end group is shown, it is not given here.

Assays:
[1] = target: T1, human cadherin-17 (CDH17), endogenously expressed on human cancer cell lines (LS513, SNU-C1, PaTu8988s, … (human, UniProt Q12864 23-832)); assay: flow cytometry (iQue) on SNUC1 cells, 0.2 µg Ab
T1 construct: also called LS513 (Colon, CDH17+); HPAF2

[2] = target: T2, biotinylated 15-mer peptide 18 of the CDH17 ECD peptide scan (human, also: biotin label, position not given here); assay: titration ELISA on biotinylated peptide captured on streptavidin plates
T2 peptide: THNLQVAALDANGII
Experimental: (§1) For the ELISA, 1 μl of each biotinylated peptide plus 99 μl of peptide coating buffer (40% DMSO and 0.05% Tween20 in PBS) was added to a streptavidin-coated microtiter plate well. The plate was incubated overnight at 4° C. without shaking. The plate was then washed 4 times with 300 μl washing buffer (PBS with 0.05% Tween20). 200 μl blocking buffer (PBS with 400 μM biotin and 20% sucrose) was added to each well and the plate incubated for 30 min at room temperature without shaking. After 3 times washing with washing buffer, 300 μl of SuperBlock T20 (TBS) Blocking Buffer (Thermo Scientific, #37536) was applied per well and incubated at room temperature for 1 hour. […]

[3] = target: T3, biotinylated 15-mer peptide 20 of the CDH17 ECD peptide scan (human, also: biotin label, position not given here); assay: as above
T3 peptide: LDANGIIVEGPVPIT
Experimental: as §1

[4] = target: T4, biotinylated 15-mer peptide 19 of the CDH17 ECD peptide scan (human, also: biotin label, position not given here); assay: as above
T4 peptide: QVAALDANGIIVEGP
Experimental: as §1

[5] = target: T1, human cadherin-17 (CDH17), endogenously …; assay: flow cytometry (iQue) on LS513 cells, 1 µg Ab
[6] = target: T5, human CDH17-mGFP fusion protein overexpressed on HEK293T cells (clone G11) (human, UniProt Q12864 23-832); assay: flow cytometry (iQue) on HEK293T CDH17 mGFP clone G11 (human), 1 µg Ab
T5 construct: also called HEK293T CDH17mGFP Clone G11; HEK293T Human CDH17mGFP G11; not shown: mGFP fluorescent protein fused to CDH17

[7] = target: T6, rat CDH17 fused to moxGFP, overexpressed on HEK293T cells (rat, UniProt P55281 22-827); assay: flow cytometry on HEK293T rat CDH17mGFP mass population, 20 µg/ml
T6 construct: whole, on cells; also called HEK293T Rat CDH17mGFP mass pop; rat CDH17-moxGFP

[8] = target: T7, mouse CDH17-mGFP fusion protein overexpressed on HEK293T cells (mouse, UniProt Q9R100 26-827); assay: flow cytometry (BD C6) on HEK293T Mouse CDH17 mGFP cells
T7 construct: also called HEK293T Mouse CDH17mGFP mass; not shown: mGFP fluorescent protein
Experimental: (§2) To determine relative antigen binding strengths of the humanized antibodies, FACS assays were carried out as essentially described in Example 1. […] Using a BD Biosciences Accuri™ C6 Flow Cytometer (San Jose, CA), antibody binding based on Alexa Fluor® 647 fluorescence was measured in the FL4-H channel and fusion protein overexpression based on GFP fluorescence was measured in the FL1-H channel.

[9] = target: T7, mouse CDH17-mGFP fusion protein …; assay: flow cytometry on HEK293T mouse CDH17mGFP mass population, 20 µg/ml
Peptide 7 = target: T8, Peptide 7 (also: biotin label, position not given here); assay: titration ELISA, antibody 1500 to 0.157 ng/ml, biotinylated peptide on streptavidin-coated plate
T8 construct: LDANGII with the seventh residue I changed to A; also called LDANGIA
T8 peptide: LDANGIA

Peptide 8 [10] = target: T9, Peptide 8 (also: biotin label, position not given here); assay: as above
T9 construct: LDANGII with the third residue A changed to G; also called LDGNGII
T9 peptide: LDGNGII

Peptide 1 = target: T10, Peptide 1 (also: biotin label, position not given here); assay: as above
T10 construct: also called Original 7-mer peptide; LDANGII
T10 peptide: LDANGII

Peptide 2 = target: T11, Peptide 2 (also: biotin label, position not given here); assay: as above
T11 construct: LDANGII with the first residue L changed to A; also called ADANGII
T11 peptide: ADANGII

[11] = target: T1, human cadherin-17 (CDH17), endogenously …; assay: flow cytometry (iQue) on SNUC1 cells, 1 µg Ab
[12] = target: T1, human cadherin-17 (CDH17), endogenously …; assay: KinExA, cell-based, SNUC1 cells
[13] = target: T6, rat CDH17 fused to moxGFP, …; assay: flow cytometry (BD C6) on HEK293T Rat CDH17 moxGFP cells
Experimental: as §2

Peptide 3 = target: T12, Peptide 3 (also: biotin label, position not given here); assay: titration ELISA, biotinylated peptide on streptavidin-coated plate
T12 construct: LDANGII with the second residue D changed to A; also called LAANGII
T12 peptide: LAANGII

Peptide 8 [14] = target: T9, Peptide 8; assay: as above
Peptide 4 = target: T13, Peptide 4 (also: biotin label, position not given here); assay: as above
T13 construct: LDANGII with the fourth residue N changed to A; also called LDAAGII
T13 peptide: LDAAGII

T7 sequence (Q9R100 26-827): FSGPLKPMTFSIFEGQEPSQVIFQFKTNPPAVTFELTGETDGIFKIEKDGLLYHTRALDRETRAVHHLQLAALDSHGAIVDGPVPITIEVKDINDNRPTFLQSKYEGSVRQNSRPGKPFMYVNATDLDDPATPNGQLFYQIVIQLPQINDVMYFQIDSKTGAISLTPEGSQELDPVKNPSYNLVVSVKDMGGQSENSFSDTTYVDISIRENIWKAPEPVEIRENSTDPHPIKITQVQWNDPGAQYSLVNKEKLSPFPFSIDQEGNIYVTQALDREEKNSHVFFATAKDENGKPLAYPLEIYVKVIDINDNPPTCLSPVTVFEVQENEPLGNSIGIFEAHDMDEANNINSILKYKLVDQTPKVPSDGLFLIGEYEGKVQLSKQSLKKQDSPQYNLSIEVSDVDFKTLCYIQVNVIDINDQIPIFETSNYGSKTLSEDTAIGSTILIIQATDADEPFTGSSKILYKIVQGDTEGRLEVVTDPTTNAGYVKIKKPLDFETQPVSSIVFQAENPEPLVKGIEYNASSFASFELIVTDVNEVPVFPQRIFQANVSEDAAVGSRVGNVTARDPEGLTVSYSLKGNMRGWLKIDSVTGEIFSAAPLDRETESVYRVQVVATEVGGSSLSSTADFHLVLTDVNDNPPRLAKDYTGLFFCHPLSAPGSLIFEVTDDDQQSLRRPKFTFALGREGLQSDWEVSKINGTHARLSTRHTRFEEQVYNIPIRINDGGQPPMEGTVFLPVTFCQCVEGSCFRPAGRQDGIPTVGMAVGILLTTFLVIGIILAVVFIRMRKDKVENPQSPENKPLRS
T6 sequence (P55281 22-827): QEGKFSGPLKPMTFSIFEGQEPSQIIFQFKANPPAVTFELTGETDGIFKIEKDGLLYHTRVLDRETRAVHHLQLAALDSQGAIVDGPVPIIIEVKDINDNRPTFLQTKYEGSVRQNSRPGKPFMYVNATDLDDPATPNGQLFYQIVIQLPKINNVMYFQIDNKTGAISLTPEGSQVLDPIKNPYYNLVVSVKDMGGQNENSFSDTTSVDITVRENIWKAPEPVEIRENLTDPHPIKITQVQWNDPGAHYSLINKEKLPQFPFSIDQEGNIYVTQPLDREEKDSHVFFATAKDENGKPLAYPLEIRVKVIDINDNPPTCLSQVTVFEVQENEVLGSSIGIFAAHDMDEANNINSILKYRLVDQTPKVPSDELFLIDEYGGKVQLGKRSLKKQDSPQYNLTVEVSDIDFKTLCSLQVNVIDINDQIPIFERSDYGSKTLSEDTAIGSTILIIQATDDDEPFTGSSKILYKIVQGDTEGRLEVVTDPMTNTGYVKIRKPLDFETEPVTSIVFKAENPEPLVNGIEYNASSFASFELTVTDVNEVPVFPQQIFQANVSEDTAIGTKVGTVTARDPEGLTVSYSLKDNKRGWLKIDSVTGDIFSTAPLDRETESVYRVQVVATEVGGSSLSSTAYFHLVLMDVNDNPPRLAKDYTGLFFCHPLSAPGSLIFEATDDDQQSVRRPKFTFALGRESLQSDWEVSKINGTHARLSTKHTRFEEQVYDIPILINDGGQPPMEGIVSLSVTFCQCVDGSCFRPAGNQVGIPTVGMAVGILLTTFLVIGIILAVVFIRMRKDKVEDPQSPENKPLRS

B1: humanized anti-CDH17 antibody 07-0663-h7 (antibody, human IgG1, kappa, V domains shown)
VH: QVQLVQSGAEVKKPGSSVKISCKVSGYTFTDHTIHWMRQAPGQGLEWIGYIFPRDDIVVYAQKFQGRATLTADKSTSTAYMELSSLRSEDTAVYYCARPPYYYSRNFYFDYWGQGTTLTVSS
VL: DIQMTQSPSSLSASVGDRVTITCRVSSIISSSKLHWYQQKPGKAPKPLIYGTSTLASGVPSRFSGSGSGTDYTLTISSLQPEDFATYYCQQWSNYPFTFGQGTKLEIKR
notes: Human IgG1 / kappa
Antibody Binding Activity by Flow iQue [1]: 163000 | binding result [2]: binds | binding result [3]: binds | binding result [4]: binds | Antibody Binding Activity by Flow iQue [5]: 2.3e+06 | Antibody Binding Activity by Flow iQue [6]: 172000 | Cross Reactivity by Flow [7]: 2160 | binding result [8]: no binding (tested: 1 µg) | Cross Reactivity by Flow [9]: 2420 | EC50 (Peptide 7): 0.117 nM | EC50 (Peptide 8 [10]): 2.98 nM | EC50 (Peptide 1): 0.16 nM | EC50 (Peptide 2): 0.126 nM | Antibody Binding Activity by Flow iQue [11]: 76100 | Kd [12]: 0.157 nM | binding result [13]: no binding (tested: 1 µg) | ELISA reading at 1500 ng/ml antibody, lower of two rows (Peptide 3): 0.0369 | ELISA reading at 1500 ng/ml antibody, upper of two rows (Peptide 3): 0.0377 | binding result (Peptide 3): no binding (tested: 1500 ng/ml) | ELISA reading at 1500 ng/ml antibody, lower of two rows (Peptide 8 [14]): 2.14 | ELISA reading at 1500 ng/ml antibody, upper of two rows (Peptide 8 [14]): 2.1 | ELISA reading at 1500 ng/ml antibody, lower of two rows (Peptide 4): 0.038 | ELISA reading at 1500 ng/ml antibody, upper of two rows (Peptide 4): 0.0379 | binding result (Peptide 4): no binding (tested: 1500 ng/ml)
